# Results as given in the supplement of paper PMC9233669.
# Fewer inactive variants are shown than the library holds.
# Key:
# biotinyl-Val-oxazolone = test: self-aminoacylation, catalytic enhancement (BVO) (fold over background); higher = more active; k-Seq, kA / k0A0; sequences stand for … in GGGAAUGGAUCCACAUCUACGAAUUC…UUCACUGCAGACUUGACGAAGCUG
# Method in brief: (§1)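 Mutagenized RNA pools with a 21-nt variable region (0.43 μM) reacted with each biotinyl-aminoacyl-oxazolone at 2–1250 μM. Reactions ran in 50 μL HEPES/NaCl/KCl/MgCl2/CaCl2 buffer with 5% acetonitrile, pH 6.9–7.0, for 90 minutes at room temperature. Streptavidin-captured RNA was quantified by triplicate qPCR and Illumina sequencing, and per-sequence fraction reacted was fit to a pseudo-first-order model with 1000 bootstraps. Catalytic enhancement is median kA divided by the uncatalyzed rate, the low-activity peak of a bimodal Gaussian fit.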
# biotinyl-Trp-oxazolone = test: self-aminoacylation, catalytic enhancement (BWO) (fold over background); higher = more active; k-Seq, kA / k0A0; sequences stand for … in GGGAAUGGAUCCACAUCUACGAAUUC…UUCACUGCAGACUUGACGAAGCUG
# Method in brief: as §1
# biotinyl-Leu-oxazolone = test: self-aminoacylation, catalytic enhancement (BLO) (fold over background); higher = more active; k-Seq, kA / k0A0; sequences stand for … in GGGAAUGGAUCCACAUCUACGAAUUC…UUCACUGCAGACUUGACGAAGCUG
# Method in brief: as §1
# biotinyl-Phe-oxazolone = test: self-aminoacylation, catalytic enhancement (BFO) (fold over background); higher = more active; k-Seq, kA / k0A0; sequences stand for … in GGGAAUGGAUCCACAUCUACGAAUUC…UUCACUGCAGACUUGACGAAGCUG
# Method in brief: as §1
# biotinyl-Met-oxazolone = test: self-aminoacylation, catalytic enhancement (BMO) (fold over background); higher = more active; k-Seq, kA / k0A0; sequences stand for … in GGGAAUGGAUCCACAUCUACGAAUUC…UUCACUGCAGACUUGACGAAGCUG
# Method in brief: as §1
# biotinyl-Ile-oxazolone = test: self-aminoacylation, catalytic enhancement (BIO) (fold over background); higher = more active; k-Seq, kA / k0A0; sequences stand for … in GGGAAUGGAUCCACAUCUACGAAUUC…UUCACUGCAGACUUGACGAAGCUG
# Method in brief: as §1
sequence,measurement,setting,value
AUUACGCUUGUCAUCGAGUGA [Fam2.1 aminoacylation ribozyme variant],self-aminoacylation,biotinyl-Val-oxazolone,2.36
same,self-aminoacylation,biotinyl-Trp-oxazolone,4.03
same,self-aminoacylation,biotinyl-Leu-oxazolone,3.93
same,self-aminoacylation,biotinyl-Phe-oxazolone,4.09
same,self-aminoacylation,biotinyl-Met-oxazolone,3.16
same,self-aminoacylation,biotinyl-Ile-oxazolone,2.6
AUUACCCUGGUCAUAGAGAGA [Fam2.1 aminoacylation ribozyme variant],self-aminoacylation,biotinyl-Val-oxazolone,0.717
same,self-aminoacylation,biotinyl-Trp-oxazolone,0.77
same,self-aminoacylation,biotinyl-Leu-oxazolone,0.798
same,self-aminoacylation,biotinyl-Phe-oxazolone,0.605
same,self-aminoacylation,biotinyl-Met-oxazolone,0.983
same,self-aminoacylation,biotinyl-Ile-oxazolone,0.947
AUACACCUAGAUCAUCGGGUG [Fam2.2 aminoacylation ribozyme variant],self-aminoacylation,biotinyl-Val-oxazolone,1.69
same,self-aminoacylation,biotinyl-Trp-oxazolone,3.43
same,self-aminoacylation,biotinyl-Leu-oxazolone,2.73
same,self-aminoacylation,biotinyl-Phe-oxazolone,7.92
same,self-aminoacylation,biotinyl-Met-oxazolone,3
same,self-aminoacylation,biotinyl-Ile-oxazolone,1.85
CUACUUCAAAAAAUCGGUCUG [Fam1A.1 aminoacylation ribozyme variant],self-aminoacylation,biotinyl-Val-oxazolone,0.795
same,self-aminoacylation,biotinyl-Trp-oxazolone,7.37
same,self-aminoacylation,biotinyl-Leu-oxazolone,0.92
same,self-aminoacylation,biotinyl-Phe-oxazolone,11.8
same,self-aminoacylation,biotinyl-Met-oxazolone,0.758
same,self-aminoacylation,biotinyl-Ile-oxazolone,1
AUUACCCUGGUCAGCGUGUGA [Fam2.1 aminoacylation ribozyme variant],self-aminoacylation,biotinyl-Val-oxazolone,3.59
same,self-aminoacylation,biotinyl-Trp-oxazolone,6.56
same,self-aminoacylation,biotinyl-Leu-oxazolone,5.25
same,self-aminoacylation,biotinyl-Phe-oxazolone,30.9
same,self-aminoacylation,biotinyl-Met-oxazolone,5.28
same,self-aminoacylation,biotinyl-Ile-oxazolone,2.79
CCACGCUUAAAGCAAUCGGUC [Fam1B.1 aminoacylation ribozyme variant],self-aminoacylation,biotinyl-Val-oxazolone,1.02
same,self-aminoacylation,biotinyl-Trp-oxazolone,0.646
same,self-aminoacylation,biotinyl-Leu-oxazolone,0.752
same,self-aminoacylation,biotinyl-Phe-oxazolone,0.884
same,self-aminoacylation,biotinyl-Met-oxazolone,0.741
same,self-aminoacylation,biotinyl-Ile-oxazolone,0.96
CUACUUCAAAUCAUCGGUCUG [Fam1A.1 aminoacylation ribozyme variant],self-aminoacylation,biotinyl-Val-oxazolone,0.855
same,self-aminoacylation,biotinyl-Trp-oxazolone,0.65
same,self-aminoacylation,biotinyl-Leu-oxazolone,0.917
same,self-aminoacylation,biotinyl-Phe-oxazolone,0.771
same,self-aminoacylation,biotinyl-Met-oxazolone,0.83
same,self-aminoacylation,biotinyl-Ile-oxazolone,0.876
AUACACCUCGGUCAUCGGGUG [Fam2.2 aminoacylation ribozyme variant],self-aminoacylation,biotinyl-Val-oxazolone,3.18
same,self-aminoacylation,biotinyl-Trp-oxazolone,3.09
same,self-aminoacylation,biotinyl-Leu-oxazolone,3.14
same,self-aminoacylation,biotinyl-Phe-oxazolone,23.3
same,self-aminoacylation,biotinyl-Met-oxazolone,3.08
same,self-aminoacylation,biotinyl-Ile-oxazolone,2.82
AUUCGCGUAGGUCAUCGGGUG [Fam2.2 aminoacylation ribozyme variant],self-aminoacylation,biotinyl-Val-oxazolone,4.87
same,self-aminoacylation,biotinyl-Trp-oxazolone,7.24
same,self-aminoacylation,biotinyl-Leu-oxazolone,8.56
same,self-aminoacylation,biotinyl-Phe-oxazolone,57.5
same,self-aminoacylation,biotinyl-Met-oxazolone,8.32
same,self-aminoacylation,biotinyl-Ile-oxazolone,5.25
AUACACCUAGGUCAUCUGGUG [Fam2.2 aminoacylation ribozyme variant],self-aminoacylation,biotinyl-Val-oxazolone,1.23
same,self-aminoacylation,biotinyl-Trp-oxazolone,1.41
same,self-aminoacylation,biotinyl-Leu-oxazolone,1.68
same,self-aminoacylation,biotinyl-Phe-oxazolone,4.68
same,self-aminoacylation,biotinyl-Met-oxazolone,1.56
same,self-aminoacylation,biotinyl-Ile-oxazolone,1.4
CCACAUUUCAAGCACUCGGUC [Fam1B.1 aminoacylation ribozyme variant],self-aminoacylation,biotinyl-Val-oxazolone,1.37
same,self-aminoacylation,biotinyl-Trp-oxazolone,0.97
same,self-aminoacylation,biotinyl-Leu-oxazolone,1.16
same,self-aminoacylation,biotinyl-Phe-oxazolone,0.933
same,self-aminoacylation,biotinyl-Met-oxazolone,1.15
same,self-aminoacylation,biotinyl-Ile-oxazolone,1.25
CUACUUCAAGCGAUCGGUCUG [Fam1A.1 aminoacylation ribozyme variant],self-aminoacylation,biotinyl-Val-oxazolone,0.781
same,self-aminoacylation,biotinyl-Trp-oxazolone,0.654
same,self-aminoacylation,biotinyl-Leu-oxazolone,0.799
same,self-aminoacylation,biotinyl-Phe-oxazolone,0.917
same,self-aminoacylation,biotinyl-Met-oxazolone,0.769
same,self-aminoacylation,biotinyl-Ile-oxazolone,0.77
AUUCACGAAGGUCAUCGGGUG [Fam2.2 aminoacylation ribozyme variant],self-aminoacylation,biotinyl-Val-oxazolone,6.74
same,self-aminoacylation,biotinyl-Trp-oxazolone,8.81
same,self-aminoacylation,biotinyl-Leu-oxazolone,11.3
same,self-aminoacylation,biotinyl-Phe-oxazolone,89.6
same,self-aminoacylation,biotinyl-Met-oxazolone,10.5
same,self-aminoacylation,biotinyl-Ile-oxazolone,5.12
CUACUCCAAACCAUCGGUCUG [Fam1A.1 aminoacylation ribozyme variant],self-aminoacylation,biotinyl-Val-oxazolone,0.971
same,self-aminoacylation,biotinyl-Trp-oxazolone,1.01
same,self-aminoacylation,biotinyl-Leu-oxazolone,1.03
same,self-aminoacylation,biotinyl-Phe-oxazolone,1.16
same,self-aminoacylation,biotinyl-Met-oxazolone,0.961
same,self-aminoacylation,biotinyl-Ile-oxazolone,1.1
CUACUUCAAACUAUCGCUCUG [Fam1A.1 aminoacylation ribozyme variant],self-aminoacylation,biotinyl-Val-oxazolone,0.786
same,self-aminoacylation,biotinyl-Trp-oxazolone,0.664
same,self-aminoacylation,biotinyl-Leu-oxazolone,0.678
same,self-aminoacylation,biotinyl-Phe-oxazolone,0.781
same,self-aminoacylation,biotinyl-Met-oxazolone,0.609
same,self-aminoacylation,biotinyl-Ile-oxazolone,0.732
AUUCACCUAGGUCAUCUAGUG [Fam2.2 aminoacylation ribozyme variant],self-aminoacylation,biotinyl-Val-oxazolone,2.78
same,self-aminoacylation,biotinyl-Trp-oxazolone,4.12
same,self-aminoacylation,biotinyl-Leu-oxazolone,5.99
same,self-aminoacylation,biotinyl-Phe-oxazolone,18.7
same,self-aminoacylation,biotinyl-Met-oxazolone,4.77
same,self-aminoacylation,biotinyl-Ile-oxazolone,2.92
AAGUUUGCUAAUAGUCCCAAU [Fam3.1 aminoacylation ribozyme variant],self-aminoacylation,biotinyl-Val-oxazolone,0.912
same,self-aminoacylation,biotinyl-Trp-oxazolone,1.28
same,self-aminoacylation,biotinyl-Leu-oxazolone,1
same,self-aminoacylation,biotinyl-Phe-oxazolone,1.36
same,self-aminoacylation,biotinyl-Met-oxazolone,0.987
same,self-aminoacylation,biotinyl-Ile-oxazolone,1.3
AUUCACCUAGGUGAUCGGCUG [Fam2.2 aminoacylation ribozyme variant],self-aminoacylation,biotinyl-Val-oxazolone,1.66
same,self-aminoacylation,biotinyl-Trp-oxazolone,1.67
same,self-aminoacylation,biotinyl-Leu-oxazolone,1.98
same,self-aminoacylation,biotinyl-Phe-oxazolone,9.04
same,self-aminoacylation,biotinyl-Met-oxazolone,1.74
same,self-aminoacylation,biotinyl-Ile-oxazolone,1.77
AUUACCCUGGUCAGCGGGUGA [Fam2.1 aminoacylation ribozyme variant],self-aminoacylation,biotinyl-Val-oxazolone,6.36
same,self-aminoacylation,biotinyl-Trp-oxazolone,10.1
same,self-aminoacylation,biotinyl-Leu-oxazolone,10.1
same,self-aminoacylation,biotinyl-Phe-oxazolone,68.2
same,self-aminoacylation,biotinyl-Met-oxazolone,9.2
same,self-aminoacylation,biotinyl-Ile-oxazolone,5.3
CCUCACUUCAAGCAAUCGGUG [Fam1B.1 aminoacylation ribozyme variant],self-aminoacylation,biotinyl-Val-oxazolone,4.01
same,self-aminoacylation,biotinyl-Trp-oxazolone,6.88
same,self-aminoacylation,biotinyl-Leu-oxazolone,9.05
same,self-aminoacylation,biotinyl-Phe-oxazolone,25.3
same,self-aminoacylation,biotinyl-Met-oxazolone,6.58
same,self-aminoacylation,biotinyl-Ile-oxazolone,4.12
AAGUUUGCUAAGAGUCGCAUG [Fam3.1 aminoacylation ribozyme variant],self-aminoacylation,biotinyl-Val-oxazolone,1.1
same,self-aminoacylation,biotinyl-Trp-oxazolone,1.69
same,self-aminoacylation,biotinyl-Leu-oxazolone,1.03
same,self-aminoacylation,biotinyl-Phe-oxazolone,1.82
same,self-aminoacylation,biotinyl-Met-oxazolone,1.07
same,self-aminoacylation,biotinyl-Ile-oxazolone,0.902
